Experimental data: patent US20240034801A1 (BEIJING HANMI PHARMACEUTICAL, published 2024)

Experiments:
[1] = molecular target: T1, recombinant human PD-L1 (Sino Biological Inc., catalog number 100 84-H08H) (human, UniProt Q9NZQ7 19-239); assay: ELISA, recombinant human PD-L1 coated (FIG. 8A)
T1 construct: Bought protein coated on the ELISA plate
Method: (§1) The detailed process is as follows: a 96-well high-adsorption ELISA plate (Costar, catalog number 42592) was coated with 1 μg/mL recombinant human PD-L1 (Sino Biological Inc., catalog number 100 84-H08H) or human 4-1BB (Sino Biological Inc., catalog number 10041-H08H) at 100 μL per well using carbonate buffer solution, pH=9.6 at 4° C. overnight. The plate was wash 5 times with PBST, and then blocked using PBST with 1% BSA 300 μL/well and incubated at 25° C. for 1 hour, and then washed 5 times with PBST. The heterodimeric antibody samples serially diluted in PBST with 1% BSA and the control were added, 100 μL per well and incubated at 25° C. for 1 hour. The plate was washed 5 times with PBST. The horseradish peroxidase-labeled anti-human IgG antibody (Chemicon, catalog number AP309P) diluted 1:10000 in PBST with 1% BSA was then added, 100 μL per well, and incubated at 25° C. for 1 hour. The plate was […] with PBST. The colorimetric substrate TMB was added, 100 μL/well, and developed at room temperature for 10 minutes. 1 M H₂SO₄, was added, 100 μL/well, to stop the development. The absorbance at 450 nm was read on a microplate reader.

[2] = molecular target: T2, recombinant human 4-1BB (Sino Biological Inc., catalog number 10041-H08H) (human, UniProt Q07011 24-186); assay: ELISA, human 4-1BB coated (FIG. 8B; assay format inferred from the order of the methods)
T2 construct: Bought protein coated on the ELISA plate
Method: as §1

T1 sequence (Q9NZQ7 19-239 limits assumed): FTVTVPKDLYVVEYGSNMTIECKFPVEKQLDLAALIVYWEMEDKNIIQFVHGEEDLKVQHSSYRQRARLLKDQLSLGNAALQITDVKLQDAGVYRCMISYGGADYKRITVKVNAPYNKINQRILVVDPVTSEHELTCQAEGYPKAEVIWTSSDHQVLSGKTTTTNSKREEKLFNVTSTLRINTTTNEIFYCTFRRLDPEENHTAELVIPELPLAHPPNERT

B1: anti-PD-L1/anti-4-1BB heterodimeric antibody BH3120h (bispecific antibody, human IgG1, kappa, N297A)
heavy 1: not shown
light 1: DIQMTQSPSSLSASVGDRVTITCKASQDVHTAVAWIQQKPGKSPKLLIYSASNRYTGVPSRFSGSGSGTDFTFTISSLQPEDIATYYCQQHYITPLTFGQGTKLEIKRTVAAPSVFIFPPSDEQLKSGTASVVCLLNNFYPREAKVQWKVDNALQSGNSQESVTEQDSKDSTYSLSSTLTLSKADYEKHKVYACEVTHQGLSSPVTKSFNRGEC
heavy 2: QVQLVQSGAEVKKPGSSVKVSCKASGYTFTSYWINWVRQAPGQGLEWMGNIYPSDSYTNYNQKFKDRVTITADKSTSTAYMELSSLRSEDTAVYYCARLYYGSSPFDYWGQGTTVTVSSASTKGPSVFPLAPSSKSTSGGTAALGCLVKDYFPEPVTVSWNSGALTSGVHTFPAVLQSSGLYSLSSVVTVPSSSLGTQTYICNVNHKPSNTKVDKKVEPKSCDKTHTCPPCPAPELLGGPSVFLFPPKPKDTLMISRTPEVTCVVVDVSHEDPEVKFNWYVDGVEVHNAKTKPREEQYASTYRVVSVLTVLHQDWLNGKEYKCKVSNKALPAPIEKTISKAKGQPREPQVYTEPPSRDELTKNQVSLTCLVKGFYPSDIAVEWESNGQPENNYKTTPPVLDSDGSFFLLSVLTVDKSRWQQGNVFSCSVMHEALHNHYTQKSLSLSPGK
light 2: not shown
notes: also called anti-PD-L1/anti-4-1BB bispecific antibody; anti-PD-L1/anti-4-1BB heterodimeric antibody molecule
B1: binds [1]; binds [2].
